Assay [1] concerns the target GST-dynein_(331 kDa) (S. cerevisiae) (UniProt P36022).
Assay [2] has the same target. This is another data set of the same source.

For one molecule, K1/2: Lis1 concentration for half-maximal reduction of single-molecule GST-dynein (331 kDa) velocity and K1/2: Lis1 concentration for half-maximal velocity reduction (experiment with the AAA4 mutants) results are on record in article PMC3438448.

Sequence of GST-dynein_(331 kDa) (S. cerevisiae) (P36022 whole entry): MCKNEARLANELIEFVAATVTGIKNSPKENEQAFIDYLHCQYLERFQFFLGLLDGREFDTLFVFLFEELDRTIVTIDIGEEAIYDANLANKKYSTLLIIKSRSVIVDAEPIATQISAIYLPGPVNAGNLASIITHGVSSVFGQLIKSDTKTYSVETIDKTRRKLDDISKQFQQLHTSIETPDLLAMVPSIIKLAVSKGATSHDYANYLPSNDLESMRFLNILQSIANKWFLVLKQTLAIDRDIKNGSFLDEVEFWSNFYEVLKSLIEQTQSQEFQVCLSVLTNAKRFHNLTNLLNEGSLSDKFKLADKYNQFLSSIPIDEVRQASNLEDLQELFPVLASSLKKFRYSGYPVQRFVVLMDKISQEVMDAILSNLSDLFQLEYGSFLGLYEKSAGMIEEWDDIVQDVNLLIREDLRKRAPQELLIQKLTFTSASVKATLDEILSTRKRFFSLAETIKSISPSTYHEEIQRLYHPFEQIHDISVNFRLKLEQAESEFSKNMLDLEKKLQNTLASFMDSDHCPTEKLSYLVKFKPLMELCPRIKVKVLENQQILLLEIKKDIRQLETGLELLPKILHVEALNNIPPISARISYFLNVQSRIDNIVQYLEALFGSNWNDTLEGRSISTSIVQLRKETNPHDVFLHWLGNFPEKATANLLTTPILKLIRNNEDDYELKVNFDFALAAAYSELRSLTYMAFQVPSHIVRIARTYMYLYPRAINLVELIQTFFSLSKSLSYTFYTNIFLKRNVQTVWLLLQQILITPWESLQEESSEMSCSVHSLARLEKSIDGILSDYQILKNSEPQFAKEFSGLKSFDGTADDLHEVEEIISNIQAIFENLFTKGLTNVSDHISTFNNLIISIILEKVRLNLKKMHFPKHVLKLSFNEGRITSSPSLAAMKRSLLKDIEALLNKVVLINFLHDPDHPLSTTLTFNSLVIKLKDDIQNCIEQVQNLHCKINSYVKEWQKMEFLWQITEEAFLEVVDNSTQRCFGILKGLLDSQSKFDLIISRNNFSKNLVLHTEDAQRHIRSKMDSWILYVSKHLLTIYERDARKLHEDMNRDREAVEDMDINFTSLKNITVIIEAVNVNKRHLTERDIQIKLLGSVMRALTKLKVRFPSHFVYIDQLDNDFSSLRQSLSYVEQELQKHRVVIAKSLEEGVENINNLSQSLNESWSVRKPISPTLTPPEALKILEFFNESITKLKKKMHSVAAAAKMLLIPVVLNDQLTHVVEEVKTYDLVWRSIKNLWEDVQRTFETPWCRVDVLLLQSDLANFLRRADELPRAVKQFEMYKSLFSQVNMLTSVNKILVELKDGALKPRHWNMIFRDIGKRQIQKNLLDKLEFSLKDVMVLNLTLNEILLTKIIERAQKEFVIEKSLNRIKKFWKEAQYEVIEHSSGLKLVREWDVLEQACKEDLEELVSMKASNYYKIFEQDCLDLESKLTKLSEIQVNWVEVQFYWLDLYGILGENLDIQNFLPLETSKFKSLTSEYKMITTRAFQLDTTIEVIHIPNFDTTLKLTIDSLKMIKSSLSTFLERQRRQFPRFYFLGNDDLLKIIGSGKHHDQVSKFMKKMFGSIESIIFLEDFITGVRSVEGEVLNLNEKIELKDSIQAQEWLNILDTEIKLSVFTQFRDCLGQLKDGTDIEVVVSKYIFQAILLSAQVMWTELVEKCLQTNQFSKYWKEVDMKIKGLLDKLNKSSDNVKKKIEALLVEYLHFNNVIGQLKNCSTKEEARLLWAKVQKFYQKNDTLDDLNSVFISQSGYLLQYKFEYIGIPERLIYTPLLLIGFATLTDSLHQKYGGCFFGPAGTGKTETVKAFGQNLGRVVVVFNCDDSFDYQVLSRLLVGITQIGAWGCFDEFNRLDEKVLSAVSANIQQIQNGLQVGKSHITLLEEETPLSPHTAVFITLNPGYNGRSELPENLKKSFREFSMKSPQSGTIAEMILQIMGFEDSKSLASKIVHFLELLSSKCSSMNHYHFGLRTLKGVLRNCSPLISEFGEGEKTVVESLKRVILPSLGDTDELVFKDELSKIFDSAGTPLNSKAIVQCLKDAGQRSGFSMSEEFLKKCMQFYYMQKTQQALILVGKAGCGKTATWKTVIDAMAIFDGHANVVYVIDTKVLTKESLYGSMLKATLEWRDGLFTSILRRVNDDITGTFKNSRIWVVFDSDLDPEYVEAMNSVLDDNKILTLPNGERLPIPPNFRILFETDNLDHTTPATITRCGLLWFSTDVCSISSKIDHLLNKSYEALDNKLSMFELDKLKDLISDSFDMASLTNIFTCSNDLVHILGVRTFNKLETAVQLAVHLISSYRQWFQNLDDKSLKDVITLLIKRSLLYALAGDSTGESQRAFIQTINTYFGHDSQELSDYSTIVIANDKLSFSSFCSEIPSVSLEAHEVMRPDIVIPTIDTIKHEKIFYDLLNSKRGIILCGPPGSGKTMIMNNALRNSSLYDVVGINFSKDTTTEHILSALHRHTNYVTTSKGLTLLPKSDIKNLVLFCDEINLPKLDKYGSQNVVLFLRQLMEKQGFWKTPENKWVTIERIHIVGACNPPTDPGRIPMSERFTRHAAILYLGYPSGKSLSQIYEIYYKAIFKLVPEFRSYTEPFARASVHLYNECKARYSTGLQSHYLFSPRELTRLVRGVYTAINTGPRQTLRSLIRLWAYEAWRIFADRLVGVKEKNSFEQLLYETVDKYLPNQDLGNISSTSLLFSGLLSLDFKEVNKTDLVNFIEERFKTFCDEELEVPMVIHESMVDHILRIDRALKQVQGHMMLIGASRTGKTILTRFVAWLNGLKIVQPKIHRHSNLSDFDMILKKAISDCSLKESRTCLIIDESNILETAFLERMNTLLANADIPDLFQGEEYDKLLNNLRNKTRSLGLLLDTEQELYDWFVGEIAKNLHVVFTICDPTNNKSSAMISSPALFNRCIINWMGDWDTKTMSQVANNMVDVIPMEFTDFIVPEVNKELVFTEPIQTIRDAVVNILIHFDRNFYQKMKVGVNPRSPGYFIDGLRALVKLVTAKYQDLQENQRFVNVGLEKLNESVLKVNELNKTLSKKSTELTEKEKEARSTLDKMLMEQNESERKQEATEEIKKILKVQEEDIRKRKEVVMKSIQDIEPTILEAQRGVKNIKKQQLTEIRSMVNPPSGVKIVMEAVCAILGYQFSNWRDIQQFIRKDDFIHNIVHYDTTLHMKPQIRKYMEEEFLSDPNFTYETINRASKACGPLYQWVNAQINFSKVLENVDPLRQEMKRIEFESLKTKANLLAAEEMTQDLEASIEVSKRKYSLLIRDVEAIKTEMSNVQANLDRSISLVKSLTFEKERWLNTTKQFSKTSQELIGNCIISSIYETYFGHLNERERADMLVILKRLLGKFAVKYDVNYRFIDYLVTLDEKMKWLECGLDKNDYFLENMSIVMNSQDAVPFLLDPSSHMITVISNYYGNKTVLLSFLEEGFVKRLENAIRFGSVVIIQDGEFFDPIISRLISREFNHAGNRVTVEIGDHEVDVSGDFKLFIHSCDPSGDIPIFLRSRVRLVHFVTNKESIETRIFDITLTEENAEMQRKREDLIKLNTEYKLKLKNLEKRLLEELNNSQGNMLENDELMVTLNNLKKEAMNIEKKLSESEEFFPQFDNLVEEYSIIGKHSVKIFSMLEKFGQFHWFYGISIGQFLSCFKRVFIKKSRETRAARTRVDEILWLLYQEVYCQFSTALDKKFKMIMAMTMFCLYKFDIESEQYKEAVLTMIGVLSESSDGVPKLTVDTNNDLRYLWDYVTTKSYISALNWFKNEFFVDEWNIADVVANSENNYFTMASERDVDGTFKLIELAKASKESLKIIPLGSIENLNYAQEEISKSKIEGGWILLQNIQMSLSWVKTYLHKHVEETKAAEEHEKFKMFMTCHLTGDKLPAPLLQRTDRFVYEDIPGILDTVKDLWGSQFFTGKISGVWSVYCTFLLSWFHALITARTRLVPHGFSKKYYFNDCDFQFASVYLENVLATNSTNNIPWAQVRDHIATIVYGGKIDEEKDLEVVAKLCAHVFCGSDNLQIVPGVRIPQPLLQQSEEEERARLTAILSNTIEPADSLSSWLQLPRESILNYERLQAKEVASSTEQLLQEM

B1: Lis1 (S. cerevisiae Pac1) (natural protein)
chain: MTNWQQQLPLTDTQKNELDKSVLRYLNWNYKQTVRHEHAQDYESVRHAIVTLSGFLLQESVDRQEFISNNDTSNESMVDIDELLLPKKWNSIVRLQKKIIELEQNTETLVSQIKDLNTQVSELAQFKPTTSNGTSAHNVLKWIPRNLPSCLINVESSVTSVKLHPNLPIVFVATDHGKLYAFDLFNYTIPLASLQSHTKAITSMDVLFTNYTNSSKKNYLVIVTASKDLQIHVFKWVSEECKFQQIRSLLGHEHIVSAVKIWQKNNDVHIASCSRDQTVKIWDFHNGWSLKTFQPHSQWVRSIDVLGDYIISGSHDTTLRLTHWPSGNGLSVGTGHEFPIEKVKFIHFIEDSPEIRFRTPSTDRYKNWGMQYCVSASRDRTIKIWEIPLPTLMAHRAPIPNPTDSNFRCVLTLKGHLSWVRDISIRGQYLFSCADDKSVRCWDLNTGQCLHVWEKLHTGFVNCLDLDVDFDSNVTPRQMMVTGGLDCKSNVFMR
With B1, the K1/2: Lis1 concentration for half-maximal reduction of single-molecule GST-dynein (331 kDa) velocity in assay [1] was found to be 15.3 nM. Further, the K1/2: Lis1 concentration for half-maximal velocity reduction (experiment with the AAA4 mutants) in assay [2] worked out at 15.7 nM.
